This is an account of results in article PMC8600089, “The development of a high-affinity conformation-sensitive antibody mimetic using a biocompatible copolymer carrier (iBody)” (The Journal of Biological Chemistry, 2021).

The assay addresses T1, recombinant extracellular part of PSMA (construct not named; ELISA and SPR) (human, UniProt Q04609 44-750).
T1 construct: prostate-specific membrane antigen (PSMA), recombinant extracellular part; also called recombinant extracellular domain of PSMA; truncated version of the target enzyme
As to conditions: both partners purified.

Starred links: 1 amine or outer side, 2 acyl side, 3 side chain; linkers in the order of their positions; H or OH if unused. Positions of bridges follow the written chain, without caps; N, C: chain ends. Groups on a side chain read outwards from the residue. *: point of attachment. PEG12 = NCCOCCOCCOCCOCCOCCOCCOCCOCCOCCOCCOCCOCCC(=O)O; Biotin = O=C1N[C@H]2[C@H](CS[C@H]2CCCCC(=O)*)N1; TBMB = c1c(C[*:1])cc(C[*:3])cc1C[*:2] Some results are limits rather than exact numbers.

What is called EC50 is the concentration giving half of the maximal effect.

T1 sequence (Q04609 44-750): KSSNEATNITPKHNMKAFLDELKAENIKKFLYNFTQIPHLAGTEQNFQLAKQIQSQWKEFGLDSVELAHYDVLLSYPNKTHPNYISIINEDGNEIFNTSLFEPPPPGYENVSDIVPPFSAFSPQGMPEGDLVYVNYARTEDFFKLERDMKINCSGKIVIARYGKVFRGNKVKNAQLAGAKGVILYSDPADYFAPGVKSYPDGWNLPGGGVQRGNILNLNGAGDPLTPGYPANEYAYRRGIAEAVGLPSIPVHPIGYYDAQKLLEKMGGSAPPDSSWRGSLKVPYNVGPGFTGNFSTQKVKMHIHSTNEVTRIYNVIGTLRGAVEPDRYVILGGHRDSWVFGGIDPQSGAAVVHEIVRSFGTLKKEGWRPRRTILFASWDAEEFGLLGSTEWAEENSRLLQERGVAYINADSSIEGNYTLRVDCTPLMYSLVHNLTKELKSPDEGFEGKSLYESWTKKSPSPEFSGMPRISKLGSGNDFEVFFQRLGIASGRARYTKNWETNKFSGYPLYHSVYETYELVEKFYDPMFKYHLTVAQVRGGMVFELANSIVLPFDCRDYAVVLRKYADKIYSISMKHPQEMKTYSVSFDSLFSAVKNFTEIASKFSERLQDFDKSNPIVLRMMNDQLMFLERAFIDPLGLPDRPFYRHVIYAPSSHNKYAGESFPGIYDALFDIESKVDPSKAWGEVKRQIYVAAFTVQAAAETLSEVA

B1: Peptide 1 (compound 1), TBMB-cyclized Ac-CDDECPDYVCGGSGK[PEG12-biotin]-NH2 (peptide)
peptide: Ac-CDDECPDYVCGGSGK([PEG12-Biotin])-NH2
modifications: linker 1-5-10 via TBMB
SMILES: CC(=O)N[C@H]1CSCc2cc3cc(c2)CSC[C@H](NC(=O)[C@H](CCC(=O)O)NC(=O)[C@H](CC(=O)O)NC(=O)[C@H](CC(=O)O)NC1=O)C(=O)N1CCC[C@H]1C(=O)N[C@@H](CC(=O)O)C(=O)N[C@@H](Cc1ccc(O)cc1)C(=O)N[C@@H](C(C)C)C(=O)N[C@H](C(=O)NCC(=O)NCC(=O)N[C@@H](CO)C(=O)NCC(=O)N[C@@H](CCCCNC(=O)CCOCCOCCOCCOCCOCCOCCOCCOCCOCCOCCOCCOCCNC(=O)CCCC[C@@H]1SC[C@@H]2NC(=O)N[C@@H]21)C(N)=O)CSC3
notes: bicyclic peptide selected by phage display against PSMA, with the GGSG spacer and an added lysine; also called the peptide; bicyclic peptide; source: synthetic peptide (SPPS, TBMB cyclization, RP HPLC); not shown: biotin (through a PEG12 linker on the C-terminal lysine), C-terminal, kept
Regarding B1, the EC50 was greater than 5000 nM.

B2: iBody 1, poly(HPMA-co-Ma-β-Ala-compound 2-co-Ma-β-Ala-ATTO488-co-Ma-β-Ala-NH-ED-biotin) (designed binder)
peptide: CDDECPDYVCGGSGK
modifications: not fully specified; N-terminus acetylated; C-terminal amide; three cysteines cyclized with TBMB; lysine side chain carries (CO)CH2CH2(OCH2CH2)5-NH2 (compound 2), through which the peptide is joined to the HPMA copolymer backbone; the polymer also carries ATTO488 (3.0× per polymer) and biotin (11.6× per polymer)
notes: bicyclic Peptide 1 as compound 2, 9.8 copies per polymer (20.4 wt%); Not a polypeptide as a whole: about 9.8 copies of the peptide on a synthetic HPMA copolymer (Mn = 88,100 g/mol, Mw = 104,000 g/mol); also called the iBody; copies: 9.8
For B2, the EC50 worked out at 2 nM.
